From patent EP0866075B1 (Arpida AG,, dated 1998) come the findings set out here.

No end group written: not given here.

The first assay addresses T1, enzyme I (phosphoenolpyruvate-protein phosphotransferase, EC 2.7.3.9) of the E. coli phosphotransferase system (E. coli, UniProt P08839 1-575). Put plainly: cell-based or functional assay.
With RHITSL [peptide 27 RHITSL], the “inhibition IC50” value is 650 µM. On to GLRFGKTRVHYLVLG [peptide 14 GLRFGKTRVHYLVLG], for which the “inhibition IC50” value came to 25 µM and the “uncoupling Pi/peptide (x IC50/h)” value is 3.2 Pi/peptide (x IC50/h). As for KISRHGKRGK [peptide 18 KISRHGKRGK], the “inhibition IC50” value is 140 µM and the “uncoupling Pi/peptide (x IC50/h)” value was 1.9 Pi/peptide (x IC50/h). As for MRLLKTLCFGLCG [peptide 31 MRLLKTLCFGLCG], the “inhibition IC50” value amounted to 3500 µM. In the case of RLHYLF [peptide 21 RLHYLF], the “inhibition IC50” value was found to be 375 µM and the “uncoupling Pi/peptide (x IC50/h)” value is 64.2 Pi/peptide (x IC50/h). Consider RHRTLF [peptide 25 RHRTLF], for which the “inhibition IC50” value was 410 µM. In the case of RHITLF [peptide 28 RHITLF], the “inhibition IC50” value came to 1380 µM. In the case of DGARLHYLF [peptide 22 DGARLHYLF], the “inhibition IC50” value was 1200 µM and the “uncoupling Pi/peptide (x IC50/h)” value is 132 Pi/peptide (x IC50/h).

As to RHWSIF [peptide 24 RHWSIF], the “inhibition IC50” value was 400 µM. With Ac-MRLLKTLCFVGLCG (cysteine pairing not given here) [peptide 32 AcMRLLKTLCFVGLCG], the “inhibition IC50” value was over 10000 µM. As for KMSRHRKPGA [peptide 16 KMSRHRKPGA], the “inhibition IC50” value was 100 µM and the “uncoupling Pi/peptide (x IC50/h)” value is 22.2 Pi/peptide (x IC50/h). As to RHYLLF [peptide 26 RHYLLF], the “inhibition IC50” value was 500 µM.

As for KISRHGRPTG [peptide 19 KISRHGRPTG], the “inhibition IC50” value turned out to be 1060 µM and the “uncoupling Pi/peptide (x IC50/h)” value was 479 Pi/peptide (x IC50/h).

Regarding SGRKSTRVHHWLLVL (not fully specified (residue 11)) [peptide 15 SGRKSTRVHHWLLVL], the “inhibition IC50” value stood at 60 µM and the “uncoupling Pi/peptide (x IC50/h)” value was 6.6 Pi/peptide (x IC50/h).

With RIHFIPRRGR [peptide 20 RIHFIPRRGR], the “inhibition IC50” value was determined as 280 µM and the “uncoupling Pi/peptide (x IC50/h)” value was 39.6 Pi/peptide (x IC50/h). As to Ac-DGARLHYLF [peptide 23 AcDGARLHYLF], the “inhibition IC50” value is 7600 µM and the “uncoupling Pi/peptide (x IC50/h)” value was 15.2 Pi/peptide (x IC50/h). In the case of MSRHRN [peptide 29 MSRHRN], the “inhibition IC50” value was found to be 760 µM and the “uncoupling Pi/peptide (x IC50/h)” value was 144 Pi/peptide (x IC50/h).

The next assay addresses T1, enzyme I (phosphoenolpyruvate-protein …). The experiment in a line: cell-based or functional assay. The source holds these as a separate data set.
As for KKWHKRKK [peptide 8 KKWHKRKK], the “inhibition IC50” value came out at 440 µM and the “uncoupling P;Ipeptide/h” value was 0.215 Pi/peptide/h. On to WHKR [peptide 12 WHKR], for which the “inhibition IC50” value came out at 4900 µM. As for KKFHLRK [peptide 1 KKFHLRK], the “inhibition IC50” value is 150 µM and the “uncoupling P;Ipeptide/h” value was 0.49 Pi/peptide/h.

Turning to KKFHIRKR [peptide 9 KKFHIRKR], the “inhibition IC50” value amounted to 160 µM and the “uncoupling P;Ipeptide/h” value was 0.31 Pi/peptide/h. KGWHKRKK [peptide 6 KGWHKRKK]: the “inhibition IC50” value turned out to be 530 µM and the “uncoupling P;Ipeptide/h” value is 0.23 Pi/peptide/h. In the case of KKWHLRKR [peptide 5 KKWHLRKR], the “inhibition IC50” value amounted to 30 µM and the “uncoupling P;Ipeptide/h” value stood at 0.3 Pi/peptide/h. With Ac-WHKR [peptide 13 Ac-WHKR], the “inhibition IC50” value worked out at 5800 µM. Regarding KKFDLRK [peptide 3 KKFDLRK], the “inhibition IC50” value amounted to 820 µM and the “uncoupling P;Ipeptide/h” value turned out to be 0.05 Pi/peptide/h. As for KKWHRRKK [peptide 7 KKWHRRKK], the “inhibition IC50” value was 300 µM and the “uncoupling P;Ipeptide/h” value came out at 0.29 Pi/peptide/h.
